Data as given in patent US20260028422A1 (CONCEPT TO MEDICINE BIOTECH, published 2026).
Like-named read-outs stand apart in the source and are kept apart here.

Key:
human MerTK-his protein [1] = biological target: T1, human MerTK-his protein (human, UniProt Q12866 21-505); assay: ELISA, plate coated with human MerTK-his, OD 450nm
T1 construct: extracellular domain; also called hMerTK-His; human MerTK protein
T1 sequence (looked up): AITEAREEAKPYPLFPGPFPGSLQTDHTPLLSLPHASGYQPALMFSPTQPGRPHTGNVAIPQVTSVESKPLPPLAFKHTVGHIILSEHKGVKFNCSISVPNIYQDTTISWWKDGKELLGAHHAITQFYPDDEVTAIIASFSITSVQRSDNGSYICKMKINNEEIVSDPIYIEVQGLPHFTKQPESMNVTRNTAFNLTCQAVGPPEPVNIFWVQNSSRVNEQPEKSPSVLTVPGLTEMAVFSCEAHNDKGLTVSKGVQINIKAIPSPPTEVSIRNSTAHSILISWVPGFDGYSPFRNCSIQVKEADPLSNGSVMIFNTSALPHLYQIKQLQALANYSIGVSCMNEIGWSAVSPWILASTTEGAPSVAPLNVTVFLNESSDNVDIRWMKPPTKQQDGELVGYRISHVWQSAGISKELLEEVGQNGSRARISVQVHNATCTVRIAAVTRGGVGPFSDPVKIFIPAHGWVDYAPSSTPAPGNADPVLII
Method: (§1) To evaluate the binding activity, the chimeric mAbs were subjected to ELISA test. Briefly, 96-well plates were coated with human or cyno MerTK-his protein at 2 μg/mL in PBS, 100 μL/well at 4° C. overnight, then blocked with 150 μL/well of 1% BSA. Five-fold dilutions of MerTK antibodies starting from 20 nM were added to each well and incubated for 1 hour at room temperature. The plates were washed with PBS/Tween-20 and then incubated with goat anti-human IgG Fe antibody conjugated with Horse Radish Peroxidase (HRP) for 30 minutes (mins) at room temperature. After washing, the plates were developed with TMB substrate and subsequent stop solution was added to complete the reaction. The signal from each well was read by spectrophotometer at OD 450 nm.
(§2) To evaluate the antigen binding activity, the humanized antibodies were subjected to ELISA test as described before.

[2] = biological target: T2, human MerTK expressed on cells (human, UniProt Q12866 21-999); assay: FACS on CHO-K1 cells overexpressing human MerTK, MFI (PE)
T2 construct: whole, on cells; also called CHO-K1-hMerTK; CHO-K1-MerTK
T2 sequence (looked up): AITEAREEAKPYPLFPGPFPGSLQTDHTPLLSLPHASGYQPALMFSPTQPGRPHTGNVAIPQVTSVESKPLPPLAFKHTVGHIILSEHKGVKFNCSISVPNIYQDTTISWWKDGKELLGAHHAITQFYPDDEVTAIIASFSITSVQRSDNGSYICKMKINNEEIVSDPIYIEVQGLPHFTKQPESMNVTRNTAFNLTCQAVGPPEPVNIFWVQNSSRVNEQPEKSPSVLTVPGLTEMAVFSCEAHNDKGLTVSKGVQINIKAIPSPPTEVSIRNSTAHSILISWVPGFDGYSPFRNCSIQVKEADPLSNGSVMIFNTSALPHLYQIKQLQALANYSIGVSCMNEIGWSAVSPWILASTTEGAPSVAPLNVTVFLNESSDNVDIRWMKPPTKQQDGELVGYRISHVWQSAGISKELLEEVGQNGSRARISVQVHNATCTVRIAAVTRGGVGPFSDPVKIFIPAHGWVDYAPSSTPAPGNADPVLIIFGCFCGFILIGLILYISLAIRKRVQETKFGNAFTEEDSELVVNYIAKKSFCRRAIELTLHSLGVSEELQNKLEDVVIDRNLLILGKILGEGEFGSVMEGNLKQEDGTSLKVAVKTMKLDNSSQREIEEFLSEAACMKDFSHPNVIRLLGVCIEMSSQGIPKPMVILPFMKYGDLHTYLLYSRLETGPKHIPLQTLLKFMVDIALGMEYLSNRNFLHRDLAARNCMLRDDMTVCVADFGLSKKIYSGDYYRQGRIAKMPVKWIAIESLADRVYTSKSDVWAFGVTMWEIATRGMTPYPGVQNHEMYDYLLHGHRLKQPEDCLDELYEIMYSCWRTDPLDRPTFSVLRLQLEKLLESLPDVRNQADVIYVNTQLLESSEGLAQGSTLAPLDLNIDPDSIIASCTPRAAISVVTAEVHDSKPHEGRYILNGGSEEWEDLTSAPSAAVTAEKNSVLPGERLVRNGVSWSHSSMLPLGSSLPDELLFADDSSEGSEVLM
Method: To evaluate the binding property to the antigen expressed on the cells, the chimeric monoclonal antibodies were analyzed for their binding to human MerTK overexpressed on CHO-K1 cells by FACS. Briefly, human MerTK overexpressing CHO-K1 (CHO-K1-MerTK) cells were firstly incubated with 5-fold serially diluted mAbs starting at 20 nM at 4° C. for 1 hour. After washing with FACS buffer, the PE conjugated anti-human IgG-Fc secondary antibody was added to each well and incubated at 4° C., for 30 mins. The mean fluorescence intensity (MFI) of PE were evaluated by QuantAnalyzer 16.
To evaluate the binding property to the antigen expressed on the cells, the humanized antibodies were analyzed by FACS as described before.

human MerTK-his protein [3] = biological target: T1, human MerTK-his protein; assay: SPR Biacore 8K, antibody captured on Protein A chip, 50 nM antigen
Method: To explore whether the humanized antibodies could maintain their binding kinetics, affinity ranking were performed with Biacore™. The antibodies were captured with a Protein A chips. Human MerTK-his protein at 50 nM was injected over captured antibodies for 180 s at a flow rate of 30 μL/min. The antigen was allowed to dissociate for 600 s. The experiment was carried out on a Biacore™ 8K. Data analysis was carried out using Biacore™ 8K evaluation software.

[4] = biological target: T2, human MerTK expressed on cells; assay: FACS on CHO-K1 cells overexpressing human MerTK, MFI (AF488)
human MerTK-his protein [5] = biological target: T1, human MerTK-his protein; assay: ELISA, plate coated with human MerTK-his, OD 450nm; remark: listed apart in the source
Method: as §1, §2

B1: 10F7D9 chimeric monoclonal antibody (antibody, V domains shown)
VH: QIQLVQSGPELKKPGETVKISCKASGYTFTNYGMNWVKQAPGKGLKWMGWINTYTGEPTYADDFKGRFAFSLETSASTAYLQINNLKNEDLATYFCATYGHYAWFAYWGQGTLVTVSA
VL: QIVLSQSPAILSASPGEKVTMTCRASSSVSYMHWYQQKSGSSPKPWIYATSNLASGVPARFSGSGSGTSYSLTISRVEAEDAATYFCQQWGTKPLTFGAGTKLELK
B1 gave an EC50 (human MerTK-his protein [1]) of 0.024 nM and an EC50 [2] of 0.23 nM.

B2: 254B4D9 chimeric monoclonal antibody (antibody, V domains shown)
VH: QIQLVQSGPELKKPGETVKISCKASGYTFTAYGMSWVKQAPGKGLQWMGWINTYSGVPTYTDDFKGRFAFSLEASASTAFLQINNLKNEDTSTYFCARRAAVVAKYWYFDVWGTGTTVTVSS
VL: DIQMTQSPSSLFASLGGKVIITCKSSQDINKRISWYQHKPGKGPRLLIHSTSSLQPGIPLRFSGSGSGRDYSFSISNLEPEDIATYFCLQYDNLLTFGAGTKLELK
In the case of B2, the EC50 (human MerTK-his protein [1]) is reported as 0.095 nM, the Kd (human MerTK-his protein [3]) is reported as 34.9 nM and the koff (human MerTK-his protein [3]) is reported as 0.000785 s⁻¹. For the same binder, the kon (human MerTK-his protein [3]) was 22500 M⁻¹ s⁻¹.

B3: 265F11B5 chimeric monoclonal antibody (antibody, V domains shown)
VH: QVQLQQSGPELVKPGASVRLSCKASGYTFTTYDINWVKQRPGLGLEWIGWIYPRDGYTKYNEKFKGRATLAVDTSSSTAYMELHSLTSEDSAVYFCTRGYYDNLYYFDYWGQGTTLTVSS
VL: EIVLTQSPTTVAASPGEKITITCSASSIISSNYFHWYQQRPGFSPKLLIYRTSNLASGVPARFSGSGSGTSYSLTIGTMEAEDVATYYCQQGRSVPLTFGAGTKLELK
In the case of B3, the EC50 (human MerTK-his protein [1]) is reported as 0.036 nM, the EC50 [4] is reported as 0.18 nM and the EC50 (human MerTK-his protein [5]) is reported as 0.098 nM. For the same binder, the Kd (human MerTK-his protein [3]) was 0.392 nM, the koff (human MerTK-his protein [3]) was 7.78e-05 s⁻¹ and the kon (human MerTK-his protein [3]) was 199000 M⁻¹ s⁻¹.
